Laboratory results reported in US20200368364A1, “CYSTEINE PEPTIDE-ENABLED ANTIBODIES” (City of Hope, priority 2016, published 2020).

Molecular target: FcγRIIIa on Jurkat effector cells (UniProt P08637)
Experiment: cell-based or functional assay

FcγRIIIa on Jurkat effector cells, sequence (P08637 17-254 limits assumed): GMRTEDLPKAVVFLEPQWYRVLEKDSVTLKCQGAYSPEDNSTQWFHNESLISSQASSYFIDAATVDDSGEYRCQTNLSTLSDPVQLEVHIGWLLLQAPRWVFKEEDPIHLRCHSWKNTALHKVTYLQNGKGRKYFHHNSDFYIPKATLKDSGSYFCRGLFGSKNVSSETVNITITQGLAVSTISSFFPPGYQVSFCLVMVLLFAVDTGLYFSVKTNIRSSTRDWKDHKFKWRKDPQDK

B1: templated αCD16-Fab construct with the C-terminal fusion (175Cys trastuzumab Fab + C-terminal meditope αCD16 nanobody) (bispecific antibody, part only; not given: trastuzumab Fab chains, V domains shown, part only)
VHH: EVQLVESGGELVQAGGSLRLSCAASGLTFSSYNMGWFRRAPGKEREFVASITWSGRDTFYADSVKGRFTISRDNAKNTVYLQMSSLKPEDTAVYYCAANPWPVAAPRSGTYWGQGTQVTVSSGSHHHHHHGGSQFDLCTRRLQS
  EC50 of in vitro ADCC reporter assay (SKBR3 targets, Jurkat effector cells), independent measurement 1: 3.2 pM
  EC50 of in vitro ADCC reporter assay (SKBR3 targets, Jurkat effector cells), independent measurement 2: 4.7 pM
